Experimental data from article PMC9605868.

Target: AP-1σ1 (cells' own, or HA-AP1S1) (UniProt P61966)
Experiment: anti-Flag IP, western blot for AP-1
Details: reference: wild type; sites S366

STING (from UniProt Q86WV6) S366A
binding against the reference: weaker
